Experimental data published in paper doi:10.1101/2022.04.12.488087 (bioRxiv, 2022).

B1: nanobody Nb70 (VHH with 6xHis tag, for crystal structural analysis) (VHH)
VHH: QVQLVESGGGLVQAGGSLRLSCVASGRTFSRYAMGWFRQAPGKEREFVAVIEWDGGTSYYVDSVKGRFTISRDNAKNTVYLQMNSLKPEDTAVYYCAAGGNQYYSATYSIWNEYDFWGQGTQVTVSS
B2: nanobody 3-2A2-4 (VHH with 6xHis tag, for crystal structural analysis) (VHH)
VHH: QVQLQESGGGLVQPGESLRLSCAASGSISTLNVMGWYRQAPGKQRELVAQITLDGSPEYADSVKGRFTITKDGAQSTLYLQMNNLKPEDTAVYFCKLENGGFFYYWGQGTQVTVST
B3: VHH72, previously published nanobody (VHH)
VHH: QVQLQESGGGLVQAGGSLRLSCAASGRTFSEYAMGWFRQAPGKEREFVATISWSGGSTYYTDSVKGRFTISRDNAKNTVYLQMNSLKPDDTAVYYCAAAGLGTVVSEWDYDYDYWGQGTQVTVSS

What was measured:
[1] = target: T1, SARS-CoV-2 wild type receptor binding domain (RBD) (SARS-CoV-2, UniProt P0DTC2); assay: crystal structure
[2] = target: T1, SARS-CoV-2 wild type receptor binding …; assay: SPR

Binder | binding result [1] | binding result [2]
B1 | binds | 
B2 | binds | 
B3 |  | binds
